The DeepSol protein solubility set

Assay: soluble on expression in E. coli; label from the status in PepcDB or PDB records

| Sequence | soluble on expression in E. coli |
| --- | --- |
| SIPAGITAAYIHKGHDTTHGGGEMVLEVPHDKTIPVLRFLRDHSSCLYDCFIDCTAADFPQKPQRFRVVYNLLSLKYSSRIRVQTHVDEVTPIESATCLFKGANWPEREVWDLFGVFFYNHPDLRRILTDYGFEGHPLRKDFPLSGYVEVRYDDTEKRVVIEPVEITQEYRAFDYTSPWEVFPEGGNFEEAEKLPERV | soluble |
| MNITQAAEQAIRLWFNTPDPMQRLHMAKTIRTWIRQDKFAQVDQANMPNCVQQILNIIYDGLKPQPVQLPISYYAQLWYNLLDILRRFTFLPIISPYIHQVVQMFCPRENGPQDFRELICNLISLNWQKDPHMKHCANQVFQIFNCIIMGVKNEKLRTEFAQHLKFEKLVGTLSEYFNPQVHPGMINPAIFIIFRFIISKDTRLKDYFIWNNNPHDQPPPPTGLIIKLNAVMIGSYRLIAGQNPETLPQNPELAHLIQVIIRTFDLLGLLLHDSDAIDGFVRSDGVGAITTVVQYPNNDLIRAGCKLLLQVSDAKALAKTPLENILPFLLRLIEIHPDDEVIYSGTGFLSNVVAHKQHVKDIAIRSNAIFLLHTIISKYPRLDELTDAPKRNRVCEIICNCLRTLNNFLMMWIPTPNGETKTAGPNEKQQVCKFIEIDILKKLMSCLSCEGMDTPGLLELRSTILRSFILLLRTPFVPKDGVLNVIDENRKENLIGHICAAYSWVFRQPNNTRTQSTKQQLVERTISLLLVLMEQCGAEKEVAQYSYSIDCPLNLLNGNQVKPTFIHNVLVVCDKILEHCPTRADIWTIDRPMLEGLTNHRNSDIAKAANSLLSRFPEN | soluble |
| MAHHHHHHMNFPDSRVLSDEFPRRKYKPSSATRLEDIVLKGLHYGQRKLLLSEIEFLSAYLEGRQAGAKPTLVVYAGAANGSHLPFLFQLFEAVKFVLIDPAPFCDAVREISLNKQGPILDLVQGFCTDELCKQLSSSYGSTYDILLVSDIRSGVPEKQSNRENTLMIMRDNDMQRSWCWTLKAEAALLKFHPPYPPCRDRNSRHYDEADDTPESIEYLDGVRLFGVWAPKSSSELRLCVQGPFLQGTSFPMRRYDCTTHEEQCYFYNTDNRYTRDCAAESGILERYLQLFPSAPYSDPTALSMTISNFLGFPLFLPLDSSFSESDARWVTLLYSTRIPTCLELFTTLRGRVTHTVMKQLAEEWQSATTVPKGVSIDSVELTSEFWKAVCAGDLTEAYSFPNIRWRFANLLISRRRKRSASDRAP | not soluble |
| MFPVNCYVLWDDTKEAVVIDPGCFYEEEKQALKKFILTNELTVKHLLNTHLHLDHIFGNPFMLKEFGLSAEANKADEFWIDEAPKQSRMFGFQLQEEPVPLGKYLHDGDIITFGHTKLEAIHVPGHSPGSLVYYCKEENCMFSGDVLFQGSIGRADLSGGNFDELIDHICSRLFVLPNETVVYPGHGAPTTIGMEKAENPFFR | not soluble |
| MSLKVALLQIDTVVGDIVGNAARIADAVREAASLGARLCVTPELALCGYPPRDLLLQDDFVPACRKALEALAQQLRDLPPVLVGAPVPNPSPVGNPIHNCAVLLREGKVTVATRKVLLPNYDVFDERRYFESGVGCGVVTIDGWRFGVTICEDVWNDKTFWQEHRHYENDPVADLMAGGADAILNLSASPFTLGKQAVRERMLSRVAFRYRVSVLYANQVGGNDDLVFAGKSIAFDATGTLIARGRSFAEDIVMVDVAQATGTITAEPTSDEEQVWKALVLGTRDYARKCGFDGAVLGLSGGIDSALVAAVAAEALGPDKVLGVLMPSPHSSEGSVTDALALASSLGIATCTIPIGDLMHGFEAALAQAFAGREADVTEENIQSRIRGNLLMALSNKQRRLLLTTGNKSELAVGYCTIYGDMAGGLAVIADLPKTLVYRVAHWLNERDTSHGHEGREARETIPSAILTKEPSAELRPGQRDSDSLPPYDVLDGILERLVELRRSAADIVAEGYDVETVRKVLRLVCNAEFKRRQAPPGLKVTDRAFGTGWRMPVAARVNLGEGHHHHHH | soluble |
| MAGNAPLQQVQKKWAECQYSTPDGDEKEQCFHRAIAKTSIYLDREPGNPELTVWLAINKASLAGAQGGFGALSLAKEAKSLLEGVIATSPQTLDGSAYTSLGSLYYKVPGWPIGFGDDDKAEEMLKKALEINPKGIDPNYFYGDFLAEEGRDKEAKVYLTRAMQASPRPDRPLADKGRKLEIEATLGRLKLEHHHHHH | soluble |
| VKVSKECEKIDIILTDGVIILGKIKGQIDSKSLHEHEKKPFSQSGTMNPETSRLLVNLSRPKKEVLDPFVGTGSILIEARWLNYECIGSDLDKAMLQKTKINLNYFNYYCSLLFSSATNLPFRQITSIATDPPYGRSTKNKGAELTQLYEEFFSSASETLTKGGFLVFATDSRFNFIDKLKENSFIIKGLHYLYSHKSLTRAIYVVQKK | not soluble |
| MQRGIVWVVDDDSSIRWVLERALAGAGLTCTTFENGNEVLAALASKTPDVLLSDIRMPGMDGLALLKQIKQRHPMLPVIIMTAHSDLDAAVSAYQQGAFDYLPKPFDIDEAVALVERAISHYQE | soluble |
| MSNRNGGGGGGDYQDVIESLRRTQLIFEEDDNNSSDSAPQANHLSRHQTSNSLVEDMVNHSNGNPPPVPPGITQQQCQIGLTPRMSASPPSAVSTISGTAVLGKTMARVQSNPPGSIPHNTTTTAQGIQSVAPHIPIGGGGATDDSSAEILSVFECPVCLEYMLPPYMQCSSGHLVCSNCRPKLQCCPTCRGPTPSVRNLGLEKIANTVRFPCKFSTSGCPLNFHHADKTEHEELCEFRPYCCPCPGASCKWQGGLSDVMEHLKKIHKSITTLQGEDIVFLATDINLPGAVDWVMMQSCFDYNFMLVLEKQEKYDPAQPTQMFYAVVQLIGSKKEADNFVYRLELSASRRRMSWEATPRSIHEGVVVAIQQSDCLAFDSNAAQLFAENGNLGINVTISRIDTPQRRHPNELENSDLEYD | not soluble |
| MGSDKIHHHHHHMRYRKLSDYLKERYGERVQRIVIHGGFSCPNRDGTKGKGGCIYCDATGSGFTTLMRLPIREQVMEMKKKYEKRGIKKFIAYFQSFSNTYAPVEMLRERYEEALVDDSIVQLSVSTRPDLVPERVLDLFEEFKKRVDVSVELGLQTANYRTLKKINRGHTLAEFVDAAVRVKKRGIELVVHVILNLPWDDMEDVVETAKILSALDVDGVKLHSLYVVEGTKLAEMYKKGEVKICSLEEYIDRAITFLEYLSPNVVIHRLVADPPRKGTIFGNWGKSKIEIINMIEEELERRDTYQGKKFDYLNR | not soluble |
| AIATSDITSGFAAVATALEHEGQLRERLRLQRDELDVAVRSLETQLSRLHYEVDWSDAVAGARQQLRTIGSGFLELQSLVPEGMFYKYNDLWRQCSIHIVQSCLLIRFFETVHAPGPQFSDNLDQSQANDSVETCTAALVTKDEVLEMLDGEKAPTQPALRLDLEEYLLGLCGGIQELARLAANRVVLGDYATPRKLAFFCNQVYAGFRLLNFRNDSLRRSYDALKYAIQRLDSILYDLRIRKLS | soluble |
| MATPSLTDACVHCGFCLSDCPSYRVLGRETDSPRGRVYLMDSLQQGRIELSDTVVEHFDTCLGCLACTSACPSGVQYDQLIEEMRQRIAQEHRRPWPEAIWRKLLFAFLPLEHHHHHH | soluble |
| MAESVNLVCTFCGSVCDDGQFDVEQFKSKKLCKLGSAKFSKKERIKAPMIDGKEVSYEEAIEKAAEILVNAKKPLLYGWASTVNEAIRLGVILTEKVGGVYDQCASVCHAPGTLAVIEEGLPGGTLGAIKNRADVVVFWGANPMEAHPRHGMRYSISAKGLLIKDRKQRKVIVVDVRPTKTAKLADEFIQIKPGYDYPIISALRAIISGNADAVPDEVGGVSKEKLVELAETMKNAKYGAVLYGLGVTQSRGRDRNVENAVKLIQLLNRHTRWVIWPMRGHYNVVGAGEVPAWEVGYQYAIDFSRGYPRFSPAEFSAVEVLKRKDCDAALIIASDPVAHFPRAAVKHLKEIPVIQIDPFPNMTTLVANVVIPSAVAGLEAEGTAYRMDGIALRVKKVVESSYWSDEQILEKLLEKVEELKG | not soluble |
| MGSSHHHHHHSSGRENLYFQGMRHKIRLIDFILLRFIEERMKVARDVAKEKKKTDSPIVIRDIEEQKIKEILDRTDLNPVRMRRIFEEIMKLAKEEEYRLLGISKTVAVLGPMGSFSDEMAMKLIGSRIPLKYCSTTDEIIEMVEKGEVDYGIVPIENSTYGTVIPVLDALLNHEVEVFGEAKLEIHHCLVAKKKLDLKEIKRIYSHPQAISQSLGFINTYLSHAEIRYTSSTSDAVNLLDDESAAIMSESAAKMYGLLILRRSIQDLKEKNITRFYIIRRKTGKMEGKYTSLFFGVQDRPGSLKAVLDIFASRGINLRKLESRPARTFLGDYVFFVEVEAPLKEEDIRDLERVTAFYKIIGVFDEVEELDVFK | soluble |
| MKSGIYQIKNTLNNKVYVGSAKDFEKAWKRHFKDLEKGCHSSIKLQRSFNKHGNVFECSILEEIPYEKDLIIERENFWIKELNSKINGYNIADATFG | soluble |
| MSLRESMRIELELQTDNFTVIPYNHQYYLASAIYNKIHSANPAYAKRLHNYQKFKFFTFSLLQIRKRVIRKEGIETIDGKAYLYISSPNNEFIENFVAGLLEDGKLRVGNVEFFVRKAKILPIPKKFNILKTISPIYLKTMIETEDGLKTYDLLPNNSKFYENLKNNLKKKYEAFYNEKCDMNFEFEVLKFRPKRMRIKNDIYCRCSEMVFKVWGDYDLIKFGYECGFGEKNSMGFGMVVNVEDKNQKNKKLKTKIEGHHHHHH | soluble |
| MGSDKIHHHHHHMGHDLPPLPSRDVHAVRWYVLSLPACHKGPAKGLKKELDRRVRLGEPTFDFFAPSFVEMRRREGHLVETHRPLLYNYVFIRSSVYEIFRLKRDFPLYNFLPSVDGRGSYPFVSDREMENLRWVARSYSDELPVYVPEAGYLRKGDRIRITDGRFKGVEASVVIQPGVGEREVMVCVDNWMWVPLLRVQPGEYEVISLAEEGKHVYTRLDNSRIQNGLHEALGRHWGSCGVTAADRELAAETLRTYGELQLDSAVMRCKLYSLLLPAYTILGDEERQKSLIGTIVSFLSLIRAEQSLALLLLTLYGCTDSSIYYYRAHELIDPWSRESSPKKSKLSLIRRLADYDRWLKHNE | not soluble |
| MGSDKIHHHHHHMFSIGKHSDFTPSCVSRMLGDLHFVNQGTAMKFSRYFFSLLTTLPLLACTQVEAPVPEALSQSTGHTAGAAQPQESVIGGSLPIGDSSRTSLDWQGSYEGVVPCASCEGIKTRLTLNNDGTYLLQSQYLGKEQDGKEPKVFEEQGKFSWNASGGAIQLENGAWYQVGENQLFMLDREGKRITGVLAGHYRLLKKQSALLPRF | not soluble |
| GPGSMGQHSAKEFRGSRRGESNSGVFPLGPGHAHVGMGSTKKPLGIHTSAVQNNVLRQRNQHRRVMHEEGGSHPRGQEADGSHGEDIAEEKFPVVIRYAAHDVRSLLSSNEKVYVAVESLNWSKLPMTASEDSFYAIVELPQGPQRFRFVVGETEVVDTAQPIEDIAEGTPLLEPRGDVGHKGETRANVIHVNKALLLTKEDEEVPDDGSGWGQEEIIHKEDRKHPPIMPVHLRYTPVNTPLTAARCALDGFMRTTDEDTVSPENLPIPLSVTVNHVYFQRREDHCVTAMTTRFCNKYSTMVYYSKAEPTASLQ | not soluble |
| ATDTLANEDCFRHESLVPNLDYERFRGSWIIAAGTSEALTQYKCWIDRFSYDDALVSKYTDSQGKNRTTIRGRTKFEGNKFTIDYNDKGKAFSAPYSVLATDYENYAIVEGCPAAANGHVIYVQLRMTLRRFHPKLGDKEMLQHYTLDQVNQNKKAIEEDLKHFNLKYEDLHSTCH | soluble |
| GMTYELSTDREFDLIAIGRACIDLNAVEYNRPMEETMTFSKYVGGSPANIVIGSSKLGLKAGFIGKIADDQHGRFIESYMRGVGVDTSNLVVDQEGHKTGLAFTEIKSPEECSILMYRQDVADLYLSPEEVNEAYIRRSKLLLVSGTALSKSPSREAVLKAIRLAKRNDVKVVFELDYRPYSWETPEETAVYYSLVAEQSDIVIGTREEFDVLENRTEKGDNDETIRYLFKHSPELIVIKHGVEGSFAYTKAGEAYRGYAYKTKVLKTFGAGDSYASAFLYALISGKGIETALKYGSASASIVVSKHSSSDAMPSVEEIEALIEKDETITIA | soluble |
